Test results from publication PMC12221289, “Armless hairpin-like tRNAs in Romanomermis culicivorax: Evolutionary adaptation of a mitochondrial elongation factor EF-Tu”.

Legend:
Test in all cases: DRaCALA; GTP; DRaCALA of EF-Tu:GTP:Phe-tRNA ternary complexes, 2 ul spotted on nitrocellulose, n>=3; binding buffer, pH and temperature not in the material
Bta mt-EF-Tu D384K = Bta mt-EF-Tu D384K (Bos taurus, UniProt P49410 44-452, D384K)
Bta mt-EF-Tu D384A = Bta mt-EF-Tu D384A (Bos taurus, UniProt P49410 44-452, D384A)
Bta mt-EF-Tu = Bta mt-EF-Tu (Bos taurus, UniProt P49410 44-452)

B1: Phe-tRNAPhe (canonical) (structured_RNA)
RNA: GCGGAUUUAGCUCAGUUGGGAGAGCGCCAGACUGAAGAUCUGGAGGUCCUGUGUUCGAUCCACAGAAUUCGCACCA
modifications: 3'-aminoacylated with Phe (flexizyme)
In the case of B1, the Kd (Bta mt-EF-Tu D384K) is reported as 76.6 nM, the Kd (Bta mt-EF-Tu D384A) is reported as 11.5 nM and the Kd (Bta mt-EF-Tu) is reported as 5.8 nM.
